# Test: label from the status in PepcDB records
row,Sequence,protein production
1,MLKSGETNGVQSNVVRASSRMRGLAEPGIKDNQGRTWRRLIVTDCFISTKVWYSLYKGTLEATRKRVSDYISDLTMVEIIGLQAFTTDGGIAS,failed
2,MLKTPYYLIDKRALLQNLEVIRRIRERSGAKVLLALKCFATWSVFDLMREYMDGTTSSSLFEVRLGREKFGGETHAYSVAYAEDDIDDVVACADKIIFNSLSQLERYAPRASAIPRGLRLNPGISVSGYDLANPARPFSRLGETDLDRIAQAMPMIDGFMVHNNCENRDFTRFDALLTELEHRYGHLLGQINWISLGGGIHFTEPGYALDAFCDRLRRFSEQYGVQVYLEPGEAAITNTATLEVTVLDVMRNEKNLAIVDAATEAHMLDLLIYRMSARVQPDQGPHRYVIYGNSCLAGDVFGEFSFESPLQPGSRISIQDAAGYTMVKKNWFNGVRMPAIAIRELDGEIRLVREFGYQDYVDSLS,failed
3,MLLDGTPFARRRVTSLTSANRKGAARRTCPEAAGGPMASSAGLALCAQTLVVRGGSRFLAFSTTGSDDDCVFTYDCSTAEKKATPEDKGEDGQPADTGSDSILASTFSKSGRYFALTDDSKRLILFRTKPWQCLSARTIACQCVYFCVLDGIKCVLFRNSTRQVLSQACIEPAHCCGAVVSGSLCPLVIXAVSPDDQFVLTADRDEKIRVSWAAAPHSIESFCLGHTEFVSRILVVPSHPELLLSSSGDGTLRLWEYRSGRQLQCCDLAGLQEPGEQPGHKGLAASRIAFWGQESYVVLLCECVPVVFVFQLDASRQQLVFRQRLTFPHRVWDVVFEEARGLWVLQDCRDAPLVLWRPVGGEWQAAPDGAVSPRLCSHLRESWAMLEGSVGTDDSFRSLYKATFDNMTSYLKKKEERLQQQLKKKRQRSPFPGSPEQTKKACPGQSALSC,failed
4,MLLEQQKQLISLIQAAVAQCLPEAQAQVQLERPKVAAHGDIATNVAMQLAKPARRNPRELAQGIVDALMAQPQARELIQDAEIAGPGFINFRLTPAARQAVVQAVASQADA,failed
5,MLLFTPGPVAINEEMRTSFSQPMPHHRTKDFEKIFQSVRENLKKMTGLEEVLLLSSSGTGAMEASVISLCQKELLFVNAGKFGERFGKIAKAHSIKAHELVYEWDTPAQVDEILSVLKANPNIDAFCIQACESSGGLRHPVEKIAQAIKETNPNVFVIVDAITALGVEPLEITHVDALIGGSQKAFMLPPAMSLVALSQNAIERIEERNVGFYFNLKSELKNQRNNTTSYTAPILHTLGLQRYFELVQNLGGFEALYRETKKAALATQKAVLALGLKIFPKSPSLSMTTIVNEHAKELRNLLKEKYQVQFAGGQEPYKDALIRINHMGIIPVYKSAYALNALELALNDLDLREFDGVANATFLKQYYGI,failed
6,MLLKILVKLIILDSSCSFLERFKLIIDCYTNKDIPDIDRQLPIWMLWRIWKSRNLSVYQHKSSTWREDFIKTVNDATEWALVWTIDSTTNIQTRQVQSRTHHSAWTRPKEDFVKCNFDCKFSKNNNVSQAGRSKGQHCSMSMEAELQALVMAMQHVWSKGYKKVIFEGDNLRLSSFLRKIKPTSKFTTGSEKIIIRKKGLAMLNSIGQEEKTTK,failed
7,MLLKQRINANVLVQDGDEPSEDPNELIKQVFALTQESNQLICRIHSTNAQAKLEDGKILLSLLSLRDSYAEQHKILIDAIANTHREPDRYSSREIKWKKVIPVSSLQKQADDISAKLRDLNVKIQAANWQIDLINLEHHHHHH,failed
8,MLLNEIPWTIPLTVRLSNGLTHTFASVYEALDFLENEWPLRKGERYERAVRTCRRALNRMTPAAVAREAFIAACLEAGMPLVMAPPAREPQGDTVKAAHTA,not failed
9,MLLPRMLEEVVLAVPARDYDRVVAGLAVEGIFHVDSPPQGVKGEVDRSYRALLTQASERSSRIRQYFDLAGVEPYRVSGVEIEVGGWGESWKRYLEKYSGVEKFYSGLLEEYSEAEARLKELLDIEARIAPVAHLDVDIARLYRSGAFDFAVYYGSYSEGLESRVGEIVSRVGGLAAVEASGGSVVVAVAVPKGALSKISPEILRLNLSIYTPPEGVPGSPREAMEYIRGEKARLGRRLVSIQEMASERLGELAEFYTVVTAFENIFKFLVSTLRRGETRIVRGFVDVRDSGRLRSIVDRMTRGSYVLLSLGVRRGGEAPIPSKVDLPQFLKPFSRVVELYGYPEPNEIVPTVFLAITLPLTFALMFPDAGQGLLVLLFSLFYLRRVSRDWAYVIAVMGGASVVSGLLAGEVFGPLVSKMLGLPELWYRLGLETPPYAMPTYAIDHGEEELVPVLVYRALNVSLFMGAFMLSFGTFLGVVNGVIKRDWVGLVESRLPRFLLFASITGPFLVYMDAGEAGSVLRQALLELGGDSIAAKLVLAGSVLGLAWMLLAGPIIYMLEGHSPLAGLANSFLEAYESLLMLVGNIPSFLRIMALALAHSSLMFVIYYLTVMIMQGGILADVVGALLYVGGNLAVAAMEGLLAFAHASRLHFYEWFSKFYSGTGVPYTPIKVEGVRIKIAGQTF,failed
10,MLLQPSRVRSGGRARWHAVQCAAAVTIGRDHPRHRYTRAMSSPLSCRLGCAACCIAPSISSPIPGMPNGKPAGVACVQLDAQLGCRLFGSPLRPAVCGNLRPSLEMCGTSRKQALSMLAALERATQP,failed
11,MLLSGWGKFVRWLLVLLSILVIIIGINLILDGVYGFGTFSTTQMYQVAKDPLIGVLIGILATALVQSSTTTTTLTVTAVGTGIVSVPVAIPIILGANIGTTITAMLVAFSYVGERREFKRAFTVAAMHVWFNVLVILVLFVVELLFHPFRTISGAIATEITLTTGGSLPTSGVMTKIFDPPTQLLGMNGLIGSIGNPSISAIVCLVVGTILILISVRAMSSQIRTITAATVTSIMDKVINPENSPKATILSNFWSFILGVLFTLMVTASSVTVASMQPVAASGVVKQKPLLGVILGANVGTTVTAMFATFAIVSDQGEFAIQAALIHLIVNFTGALLVLCIPQLANVIIHLAEKTANLTARSYSITLATIVTAYVLVPSAVLMIYFFI,failed

# Source: a protein production outcome set (Wang et al. 2014)
